The source of these data is US20220396758A1 (University of California, published 2022).

The test has as its target T1, covalently-linked trimer of an N-terminal truncated ClpX variant (ClpX-ΔN3) (E. coli, UniProt A7ZIJ6 62-424).
T1 construct: About 30-100 nM was present in the trans solution with ATP; also called synthetically designed trimer of ClpX subunits expressed as a single chain
The experiment in a line: nanopore ionic current recording; substrate cis, ClpX/ATP trans.

B1: substrate protein S1 (single N-terminal Smt3 domain, 65-amino-acid charged flexible tail, C-terminal 11 amino acid ssrA tag) (other)
chain: MGSSHHHHHHGSGLVPRGSASMSDSEVNQEAKPEVKPEVKPETHINLKVSDGSSEIFFKIKKTTPLRRLMEAFAKRQGKEMDSLRFLYDGIRIQADQTPEDLDMEDNDIIEAHREQIGGGGSSGGSGGSGSSGDGGSSGGSGGSGSSGDGGSSGGSGGDGSSGDGGSDGDSDGSDGDGDSDGDDAANDENYALAA
notes: Engineered fusion expressed in E. coli BL21 (DE3)*; About 1-2 uM was added to the cis well; also called engineered Smt3 protein
As for B1, the binding result was “binds”.
